Source: patent US20220064329A1 (Novo Nordisk, published 2022)

T1: recombinant human activated Factor VII (FVIIa) (human, UniProt P08709 61-212; P08709 213-466, ten glutamate residues of the Gla domain may be gamma-carboxylated)
T1 construct: chains tethered by a disulfide bond; also called Factor VIIa; rFVIIa
T1 sequence 1: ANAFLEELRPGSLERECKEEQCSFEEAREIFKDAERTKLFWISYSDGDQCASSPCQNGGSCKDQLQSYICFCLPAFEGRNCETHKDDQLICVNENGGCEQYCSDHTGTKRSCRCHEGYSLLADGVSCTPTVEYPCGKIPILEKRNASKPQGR
T1 sequence 2: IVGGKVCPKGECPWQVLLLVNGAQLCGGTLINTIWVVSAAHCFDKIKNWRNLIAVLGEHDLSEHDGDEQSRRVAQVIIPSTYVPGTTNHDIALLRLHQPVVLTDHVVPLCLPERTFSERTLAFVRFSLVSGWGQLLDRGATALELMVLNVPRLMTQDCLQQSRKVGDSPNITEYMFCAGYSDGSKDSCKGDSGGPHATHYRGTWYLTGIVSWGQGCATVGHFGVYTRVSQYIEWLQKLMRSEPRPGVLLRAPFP


Key:
[1] = molecular target: T1, recombinant human activated Factor VII …; test: SPR (Biacore)
[2] = molecular target: T1, recombinant human activated Factor VII …; test: cell-based or functional assay

Row | Kd [1] [nM] | AT inhibition (kinh %) [2] [%] | TGT activity (%% FVIIa) [2] [%] | Binder
1 | 0.041 | 119 | 103 | mAb0077(OA) (antibody, human IgG4 S228P, kappa, one-armed (OA) antibody, constant domain type E (Duobody); murine VL/VH; also called monovalent 11F2) heavy: not shown light: DIVMTQSPATLSVTAGDRVSLSCRASQGISDYLHWYQQKSHESPRLLIKYTSQPVSGIPSRFSGSGSGSEFTLSINSVEPEDVGVYYCQNGHSFPLTFGAGTKLELKRTVAAPSVFIFPPSDEQLKSGTASVVCLLNNFYPREAKVQWKVDNALQSGNSQESVTEQDSKDSTYSLSSTLTLSKADYEKHKVYACEVTHQGLSSPVTKSFNRGEC VESKYGPPCPPCPAPEFLGGPSVFLFPPKPKDTLMISRTPEVTCVVVDVSQEDPEVQFNWYVDGVEVHNAKTKPREEQFNSTYRVVSVLTVLHQDWLNGKEYKCKVSNKGLPSSIEKTISKAKGQPREPQVYTLPPSQEEMTKNQVSLTCLVKGFYPSDIAVEWESNGQPENNYKTTPPVLDSDGSFLLYSKLTVDKSRWQEGNVFSCSVMHEALHNHYTQKSLSLSLGK
2 | 0.12 | 117 | 98 | mAb0099(OA) (antibody, human IgG4 S228P, kappa) heavy: DVQLQESGPGLVEPSQSLSLTCTVTGYSITSDSAWSWIRQFPGNKLEWMGYIQYSGSTNYNPSLKSRISVTRDTSKNQFFLRLSSVTAEDTATYYCTRSVNYYGNSFAVGYWGQGTSVTVSSASTKGPSVFPLAPCSRSTSESTAALGCLVKDYFPEPVTVSWNSGALTSGVHTFPAVLQSSGLYSLSSVVTVPSSSLGTKTYTCNVDHKPSNTKVDKRVESKYGPPCPPCPAPEFLGGPSVFLFPPKPKDTLMISRTPEVTCVVVDVSQEDPEVQFNWYVDGVEVHNAKTKPREEQFNSTYRVVSVLTVLHQDWLNGKEYKCKVSNKGLPSSIEKTISKAKGQPREPQVYTLPPSQEEMTKNQVSLSCAVKGFYPSDIAVEWESNGQPENNYKTTPPVLDSDGSFFLVSRLTVDKSRWQEGNVFSCSVMHEALHNHYTQKSLSLSLGK light: DIVMTQSPATLSVTAGDRVSLSCRASQGISDYLHWYQQKSHESPRLLIKYTSQPVSGIPSRFSGSGSGSEFTLSINSVEPEDVGVYYCQNGHSFPLTFGAGTKLELKRTVAAPSVFIFPPSDEQLKSGTASVVCLLNNFYPREAKVQWKVDNALQSGNSQESVTEQDSKDSTYSLSSTLTLSKADYEKHKVYACEVTHQGLSSPVTKSFNRGEC not shown
3 | 0.13 | 105 | 99 | mAb0138(OA) (antibody, human IgG4 S228P, kappa, one-armed (OA) antibody, constant domain type E) heavy: not shown light: EIVLTQSPATLSLSPGERATLSCRASQGISDYLHWYQQKPGEAPRLLIKYTSQPATGIPARFSGSGSGTDFTLTISSLEPEDVGVYYCQNGHSFPLTFGAGTKLELKRTVAAPSVFIFPPSDEQLKSGTASVVCLLNNFYPREAKVQWKVDNALQSGNSQESVTEQDSKDSTYSLSSTLTLSKADYEKHKVYACEVTHQGLSSPVTKSFNRGEC VESKYGPPCPPCPAPEFLGGPSVFLFPPKPKDTLMISRTPEVTCVVVDVSQEDPEVQFNWYVDGVEVHNAKTKPREEQFNSTYRVVSVLTVLHQDWLNGKEYKCKVSNKGLPSSIEKTISKAKGQPREPQVYTLPPSQEEMTKNQVSLTCLVKGFYPSDIAVEWESNGQPENNYKTTPPVLDSDGSFLLYSKLTVDKSRWQEGNVFSCSVMHEALHNHYTQKSLSLSLGK
4 | 0.083 | 106 | 100 | mAb0140(OA) (antibody, human IgG4 S228P, kappa, one-armed (OA) antibody, constant domain type E) heavy: not shown light: EIVLTQSPATLSLSPGERATLSCRASQGISDYLHWYQQKPGEAPRLLIKYTSQPATGIPARFSGSGSGTDFTLTISSLEPEDVGVYYCQNGHSFPLTFGAGTKLELKRTVAAPSVFIFPPSDEQLKSGTASVVCLLNNFYPREAKVQWKVDNALQSGNSQESVTEQDSKDSTYSLSSTLTLSKADYEKHKVYACEVTHQGLSSPVTKSFNRGEC VESKYGPPCPPCPAPEFLGGPSVFLFPPKPKDTLMISRTPEVTCVVVDVSQEDPEVQFNWYVDGVEVHNAKTKPREEQFNSTYRVVSVLTVLHQDWLNGKEYKCKVSNKGLPSSIEKTISKAKGQPREPQVYTLPPSQEEMTKNQVSLTCLVKGFYPSDIAVEWESNGQPENNYKTTPPVLDSDGSFLLYSKLTVDKSRWQEGNVFSCSVMHEALHNHYTQKSLSLSLGK
5 | 1 | 114 | 106 | mAb0142(OA) (antibody, human IgG4 S228P, kappa, one-armed (OA) antibody, constant domain type E) heavy: not shown light: EIVLTQSPATLSLSPGERATLSCRASQGISSYLHWYQQKPGEAPRLLIKYTSQPATGIPARFSGSGSGTDFTLTISSLEPEDVGVYYCQNGHSFPLTFGAGTKLELKRTVAAPSVFIFPPSDEQLKSGTASVVCLLNNFYPREAKVQWKVDNALQSGNSQESVTEQDSKDSTYSLSSTLTLSKADYEKHKVYACEVTHQGLSSPVTKSFNRGEC VESKYGPPCPPCPAPEFLGGPSVFLFPPKPKDTLMISRTPEVTCVVVDVSQEDPEVQFNWYVDGVEVHNAKTKPREEQFNSTYRVVSVLTVLHQDWLNGKEYKCKVSNKGLPSSIEKTISKAKGQPREPQVYTLPPSQEEMTKNQVSLTCLVKGFYPSDIAVEWESNGQPENNYKTTPPVLDSDGSFLLYSKLTVDKSRWQEGNVFSCSVMHEALHNHYTQKSLSLSLGK
6 | 0.079 | 109 | 107 | mAb0143(OA) (antibody, human IgG4 S228P, kappa, one-armed (OA) antibody, constant domain type E) heavy: not shown light: EIVLTQSPATLSLSPGERATLSCRASQGISDYLHWYQQKPGEAPRLLIKYTSQPATGIPARFSGSGSGTDFTLTISSLEPEDFGVYYCQNGHSFPLTFGAGTKLELKRTVAAPSVFIFPPSDEQLKSGTASVVCLLNNFYPREAKVQWKVDNALQSGNSQESVTEQDSKDSTYSLSSTLTLSKADYEKHKVYACEVTHQGLSSPVTKSFNRGEC VESKYGPPCPPCPAPEFLGGPSVFLFPPKPKDTLMISRTPEVTCVVVDVSQEDPEVQFNWYVDGVEVHNAKTKPREEQFNSTYRVVSVLTVLHQDWLNGKEYKCKVSNKGLPSSIEKTISKAKGQPREPQVYTLPPSQEEMTKNQVSLTCLVKGFYPSDIAVEWESNGQPENNYKTTPPVLDSDGSFLLYSKLTVDKSRWQEGNVFSCSVMHEALHNHYTQKSLSLSLGK
7 | 0.078 | 109 | 103 | mAb0141(OA) (antibody, human IgG4 S228P, kappa, one-armed (OA) antibody, constant domain type E) heavy: not shown light: EIVLTQSPATLSLSPGERATLSCRASQGISDYLHWYQQKPGEAPRLLIKYTSQPATGIPARFSGSGSGTDFTLTISSLEPEDVGVYYCQNGHSFPLTFGAGTKLELKRTVAAPSVFIFPPSDEQLKSGTASVVCLLNNFYPREAKVQWKVDNALQSGNSQESVTEQDSKDSTYSLSSTLTLSKADYEKHKVYACEVTHQGLSSPVTKSFNRGEC VESKYGPPCPPCPAPEFLGGPSVFLFPPKPKDTLMISRTPEVTCVVVDVSQEDPEVQFNWYVDGVEVHNAKTKPREEQFNSTYRVVSVLTVLHQDWLNGKEYKCKVSNKGLPSSIEKTISKAKGQPREPQVYTLPPSQEEMTKNQVSLTCLVKGFYPSDIAVEWESNGQPENNYKTTPPVLDSDGSFLLYSKLTVDKSRWQEGNVFSCSVMHEALHNHYTQKSLSLSLGK
8 | 0.104 | 137 | 103 | mAb0709(OA) (antibody, human IgG4 S228P, kappa, one-armed (OA) antibody, constant domain type F (knob-in-hole)) heavy: QVQLQESGPGLVKPSQTLSLTCTVSGYSISSDSAWSWIRQPPGKGLEWIGYIQYSGSTNYNPSLKSRVTISRDTSKNQFSLKLSSVTAADTAVYYCARSVNYYGNSFAVGPWGQGTLVTVSSASTKGPSVFPLAPCSRSTSESTAALGCLVKDYFPEPVTVSWNSGALTSGVHTFPAVLQSSGLYSLSSVVTVPSSSLGTKTYTCNVDHKPSNTKVDKRVESKYGPPCPPCPAPEFLGGPSVFLFPPKPKDTLMISRTPEVTCVVVDVSQEDPEVQFNWYVDGVEVHNAKTKPREEQFNSTYRVVSVLTVLHQDWLNGKEYKCKVSNKGLPSSIEKTISKAKGQPREPQVYTLPPSQEEMTKNQVSLSCAVKGFYPSDIAVEWESNGQPENNYKTTPPVLDSDGSFFLVSRLTVDKSRWQEGNVFSCSVMHEALHNHYTQKSLSLSLGK light: EIVLTQSPATLSLSPGERATLSCRASQGISDYLHWYQQKPGEAPRLLIKYTSQPATGIPARFSGSGSGTDFTLTISSLEPEDFAVYYCQNGHSFPLTFGQGTKLEIKRTVAAPSVFIFPPSDEQLKSGTASVVCLLNNFYPREAKVQWKVDNALQSGNSQESVTEQDSKDSTYSLSSTLTLSKADYEKHKVYACEVTHQGLSSPVTKSFNRGEC not shown
9 | 0.0505 | 129 | 100 | mAb0705(OA) (antibody, human IgG4 S228P, kappa, one-armed (OA) antibody, constant domain type F (knob-in-hole); also called monovalent humanized 11F2) heavy: QVQLQESGPGLVKPSQTLSLTCTVSGYSISSDSAWSWIRQPPGKGLEWIGYIQYSGSTNYNPSLKSRVTISRDTSKNQFSLKLSSVTAADTAVYYCARSVNYYGNSFAVGYWGQGTLVTVSSASTKGPSVFPLAPCSRSTSESTAALGCLVKDYFPEPVTVSWNSGALTSGVHTFPAVLQSSGLYSLSSVVTVPSSSLGTKTYTCNVDHKPSNTKVDKRVESKYGPPCPPCPAPEFLGGPSVFLFPPKPKDTLMISRTPEVTCVVVDVSQEDPEVQFNWYVDGVEVHNAKTKPREEQFNSTYRVVSVLTVLHQDWLNGKEYKCKVSNKGLPSSIEKTISKAKGQPREPQVYTLPPSQEEMTKNQVSLSCAVKGFYPSDIAVEWESNGQPENNYKTTPPVLDSDGSFFLVSRLTVDKSRWQEGNVFSCSVMHEALHNHYTQKSLSLSLGK light: EIVLTQSPATLSLSPGERATLSCRASQGISDYLHWYQQKPGEAPRLLIKYTSQPATGIPARFSGSGSGTDFTLTISSLEPEDFAVYYCQNGHSFPLTFGQGTKLEIKRTVAAPSVFIFPPSDEQLKSGTASVVCLLNNFYPREAKVQWKVDNALQSGNSQESVTEQDSKDSTYSLSSTLTLSKADYEKHKVYACEVTHQGLSSPVTKSFNRGEC not shown
